Assay results published in paper PMC8458385, “Molecular basis for PICS-mediated piRNA biogenesis and cell division” (Nature Communications, 2021).

B5: ERH-2 (natural protein, C. elegans, UniProt Q20057 1-113, looked up)
chain: MSTSSHTVLLIQTSPRLDSRTWGDYESVTDALDALCKMFEDFLSKKSAAPVTYDVSQVYEFLDKLSDVSMMIFNRETGQYIGRTRAWIKQQVYEMMRGRCQHPEGGEKVIVGY
notes: ERH-2, C. elegans, amplified from a cDNA library; also called wild type ERH-2; source: E. coli BL21(DE3), purified (Ni-NTA, TEV, second Ni-NTA); not shown: His tag (from the Ni-NTA purification), N-terminal, cleaved

How the values were obtained:
[1] = biological target: T1, ERH-2^1-103-(Gly-Ser-Ser)7-PICS-1^180-200 (C. elegans, UniProt Q20057 1-103; O76616 180-200); experiment: ITC; MicroCal ITC200, 25 °C, 20 mM Tris pH 8.5, 200 mM NaCl or 20 mM MES pH 6.5, 200 mM NaCl; 1–2 mM in the syringe into 30–50 μM in the cell; one-site binding model; details: both partners purified
T1 construct: ERH-2, C. elegans, residues 1-103; 21-aa linker (Gly-Ser-Ser)7; PICS-1 (PID-3), C. elegans, EBM, residues 180-200; Cloned into pET28-MHL; The results on ITC say only 'ERH-2' for the fused part; the methods describe only the 1-103 fusion; also called ERH-2-(GSS)7-PICS-1; ERH-2^1-103-(GSS)7-PICS-1^180-200; source: E. coli BL21(DE3), purified (Ni-NTA, TEV, second Ni-NTA, Superdex 75); not shown: His …
T1 chain: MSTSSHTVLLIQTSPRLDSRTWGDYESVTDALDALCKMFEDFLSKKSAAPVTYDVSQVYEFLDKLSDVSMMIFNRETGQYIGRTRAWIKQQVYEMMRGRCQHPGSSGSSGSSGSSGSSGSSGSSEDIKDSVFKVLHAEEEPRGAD

ERH-2 = biological target: B5; experiment: as above; details: both partners purified
[2] = biological target: the molecule itself; experiment: crystal structure; fusion protein ERH-2^1-103-(GSS)7-PICS-1^180-200, 2.40 Å; 15% 2-propanol, 0.1 M sodium citrate pH 5.0, 10% PEG 10000, 18 °C
[3] = biological target: T2, TOFU-6^RRM (residues 2-92) (C. elegans, UniProt Q09293 2-92); experiment: ITC; MicroCal ITC200, 25 °C, 20 mM Tris pH 8.5, 200 mM NaCl or 20 mM MES pH 6.5, 200 mM NaCl; 1–2 mM in the syringe into 30–50 μM in the cell; one-site binding model; details: both partners purified
T2 construct: TOFU-6, C. elegans, RRM domain, residues 2-92; Gene codon-optimised and synthesised; for the crystal co-expressed with PICS-1^RRM from a modified pETDuet-1; also called TOFU-6 RRM domain; TOFU-6^C; source: E. coli BL21(DE3), purified (Ni-NTA, TEV, second Ni-NTA; complex with PICS-1^RRM also Superdex 75); not shown: His tag (from the Ni-NTA purification), N-terminal, cleaved
T2 sequence (looked up): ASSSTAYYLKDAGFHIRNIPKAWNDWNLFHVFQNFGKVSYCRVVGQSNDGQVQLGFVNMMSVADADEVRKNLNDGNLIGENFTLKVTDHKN

[4] = biological target: the molecule itself; experiment: SEC; wild type and F217E of PICS-1^RRM on HiLoad 16/600 Superdex 75, 20 mM Tris hydrochloride pH 8.5, 200 mM NaCl
[5] = biological target: T3, TOFU-6^RRM (L73M) (SeMet) (C. elegans, UniProt Q09293 2-92, L73M, seleno-methionine (SeMet) labeled); experiment: crystal structure; SeMet TOFU-6^RRM (L73M)/PICS-1^RRM (I233M) complex, 1.95 Å; 2% 1,4-dioxane, 0.1 M Tris hydrochloride pH 8.0, 15% PEG 3350, 0.01 M nickel chloride, 18 °C; details: both partners purified
T3 construct: TOFU-6, C. elegans, RRM domain, residues 2-92; also called SeMet TOFU-6^RRM(L73M); source: E. coli BL21(DE3) in M9 medium with SeMet, purified with PICS-1^RRM (I233M) (Ni-NTA, TEV, Superdex 75); not shown: His tag (from the Ni-NTA purification), N-terminal, cleaved
T3 sequence (looked up): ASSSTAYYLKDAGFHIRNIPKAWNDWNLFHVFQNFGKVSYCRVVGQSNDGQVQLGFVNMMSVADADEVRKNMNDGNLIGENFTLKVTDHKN

[6] = biological target: the molecule itself; experiment: as above
PICS-1^5-200 = biological target: T4, PICS-1^5-200 (C. elegans, UniProt O76616 5-200); experiment: SEC; ERH-2 and TOFU-6^RRM mixed with PICS-1 constructs, Superose 6 Increase 10/300 GL, 20 mM Tris hydrochloride pH 8.5, 200 mM NaCl; fractions on SDS-PAGE; details: both partners purified
T4 construct: PICS-1 (PID-3), C. elegans, residues 5-200; Cloned into pET28-MHL; also called PICS-1^ΔRRM; PICS1^ΔRRM; source: E. coli BL21(DE3), purified (Ni-NTA, TEV, second Ni-NTA); not shown: His tag (from the Ni-NTA purification), N-terminal, cleaved
T4 sequence (looked up): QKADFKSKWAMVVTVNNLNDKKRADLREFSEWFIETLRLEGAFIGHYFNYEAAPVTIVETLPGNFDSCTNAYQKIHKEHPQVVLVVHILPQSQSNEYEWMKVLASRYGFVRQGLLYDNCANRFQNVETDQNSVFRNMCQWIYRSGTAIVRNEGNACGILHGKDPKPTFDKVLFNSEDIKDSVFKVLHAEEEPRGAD

PICS-1^5-282 = biological target: T5, PICS-1^5-282 (C. elegans, UniProt O76616 5-282); experiment: as above; details: both partners purified
T5 construct: Cloned into pET28-MHL; also called almost full-length PICS-1; source: E. coli BL21(DE3), purified (Ni-NTA, TEV, second Ni-NTA); not shown: His tag (from the Ni-NTA purification), N-terminal, cleaved
T5 sequence (looked up): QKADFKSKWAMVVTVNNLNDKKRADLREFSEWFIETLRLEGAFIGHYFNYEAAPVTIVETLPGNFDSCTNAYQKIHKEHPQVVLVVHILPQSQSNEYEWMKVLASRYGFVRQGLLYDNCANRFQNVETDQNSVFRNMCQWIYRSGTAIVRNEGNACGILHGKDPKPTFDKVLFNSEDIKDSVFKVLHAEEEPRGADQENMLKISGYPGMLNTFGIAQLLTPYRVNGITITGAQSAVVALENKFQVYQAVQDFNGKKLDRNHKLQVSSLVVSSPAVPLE

ERH-2 D67A = biological target: T6, ERH-2 D67A (C. elegans, UniProt Q20057 1-113, D67A); experiment: ITC; MicroCal ITC200, 25 °C, 20 mM Tris pH 8.5, 200 mM NaCl or 20 mM MES pH 6.5, 200 mM NaCl; 1–2 mM in the syringe into 30–50 μM in the cell; one-site binding model; details: both partners purified
T6 construct: ERH-2, C. elegans; Cloned into pET28-MHL; also called D67A of ERH-2; source: E. coli BL21(DE3), purified as the wild type; not shown: His tag (from the Ni-NTA purification), N-terminal, cleaved
T6 sequence (looked up): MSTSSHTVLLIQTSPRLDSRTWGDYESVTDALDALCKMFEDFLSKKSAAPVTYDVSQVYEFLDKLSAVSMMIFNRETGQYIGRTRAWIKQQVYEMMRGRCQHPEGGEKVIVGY

B1: SUMO-fused PID-1^50-70 (domain or fragment, C. elegans, UniProt Q19541 50-70, looked up)
chain: TNLHRKVTLSDRFELAALGYE
notes: PID-1, C. elegans, residues 50-70; the results say it was fused to the C-terminus of SUMO; also called PID-1 fragment; source: E. coli BL21(DE3), purified (Ni-NTA); not shown: SUMO, N-terminal, kept
**Q.** How did the Kd [1] turn out when B1 was run?
**A.** 12 µM

**Q.** What about the Kd (ERH-2) of the same binder?
**A.** 18 µM

B2: ERH-2 (1-103), the ERH-2 part of the crystallised fusion proteins (domain or fragment, C. elegans, UniProt Q20057 1-103, looked up)
chain: MSTSSHTVLLIQTSPRLDSRTWGDYESVTDALDALCKMFEDFLSKKSAAPVTYDVSQVYEFLDKLSDVSMMIFNRETGQYIGRTRAWIKQQVYEMMRGRCQHP
notes: ERH-2, C. elegans, residues 1-103; In the crystals it stood joined on one chain with PICS-1^180-200 (via (GSS)7) or TOST-1^34-54 (via (GSS)6); written apart for the rows of the two partners; also called ERH-2^A; ERH-2^B; source: E. coli BL21(DE3), purified as part of the fusion proteins m8 and m9
**Q.** Does B2 bind [2]?
**A.** binds

B3: PICS-1^RRM (residues 201-282) (domain or fragment, C. elegans, UniProt O76616 201-282, looked up)
chain: QENMLKISGYPGMLNTFGIAQLLTPYRVNGITITGAQSAVVALENKFQVYQAVQDFNGKKLDRNHKLQVSSLVVSSPAVPLE
notes: Homodimer in the crystal and by gel filtration; also called PICS-1(PID-3) RRM domain; PID-3; source: E. coli BL21(DE3), purified (Ni-NTA, TEV, second Ni-NTA, Superdex 75); not shown: His tag (from the Ni-NTA purification), N-terminal, cleaved
**Q.** Which Kd [3] does the source give for B3 here?
**A.** 0.0062 µM

**Q.** Does B3 bind [4]?
**A.** binds

B4: PICS-1^RRM (I233M) (SeMet) (domain or fragment, C. elegans, UniProt O76616 201-282, looked up)
chain: QENMLKISGYPGMLNTFGIAQLLTPYRVNGITMTGAQSAVVALENKFQVYQAVQDFNGKKLDRNHKLQVSSLVVSSPAVPLE
modifications: seleno-methionine (SeMet) labeled
notes: also called SeMet PICS-1^RRM(I233M); source: E. coli BL21(DE3) in M9 medium with SeMet, purified with TOFU-6^RRM (L73M) (Ni-NTA, TEV, Superdex 75); not shown: His tag (from the Ni-NTA purification), N-terminal, cleaved
**Q.** Does B4 bind [5]?
**A.** binds

**Q.** Does B4 bind [6]?
**A.** binds

**Q.** Does B5 bind (PICS-1^5-200)?
**A.** binds

**Q.** Does B5 bind (PICS-1^5-282)?
**A.** binds

B6: SUMO-fused PICS-1 ERH-2 binding motif (EBM, residues 180-200) (domain or fragment, C. elegans, UniProt O76616 180-200, looked up)
chain: EDIKDSVFKVLHAEEEPRGAD
notes: Cloned into pET28-SUMO; the Kds are for the SUMO fusion protein; also called PICS-1^EBM; PICS-1^180-200; source: E. coli BL21(DE3), purified (Ni-NTA); not shown: SUMO, N-terminal, kept
**Q.** With B6 as the binder, how does the Kd (ERH-2) read?
**A.** 8.5 µM

**Q.** And the Kd (ERH-2 D67A)?
**A.** 4.3 µM
